The target in the assay is murine SCI/MIP1-α Variant 3 (murine) (UniProt P10855). Nature of the assay: chromatographic techniques, molecular weight estimate.

In the case of “murine SCI/MIP1-α Variant 3 (from UniProt P10855) (ligand)”, the estimated molecular weight (self-association) is 8 kD.
